Measured values published in US20230038638A1, “COMPLEMENT FACTOR I-RELATED COMPOSITIONS AND METHODS” (published 2023).

T1: human C4b (human) (UniProt P0C0L4)
T1 sequence: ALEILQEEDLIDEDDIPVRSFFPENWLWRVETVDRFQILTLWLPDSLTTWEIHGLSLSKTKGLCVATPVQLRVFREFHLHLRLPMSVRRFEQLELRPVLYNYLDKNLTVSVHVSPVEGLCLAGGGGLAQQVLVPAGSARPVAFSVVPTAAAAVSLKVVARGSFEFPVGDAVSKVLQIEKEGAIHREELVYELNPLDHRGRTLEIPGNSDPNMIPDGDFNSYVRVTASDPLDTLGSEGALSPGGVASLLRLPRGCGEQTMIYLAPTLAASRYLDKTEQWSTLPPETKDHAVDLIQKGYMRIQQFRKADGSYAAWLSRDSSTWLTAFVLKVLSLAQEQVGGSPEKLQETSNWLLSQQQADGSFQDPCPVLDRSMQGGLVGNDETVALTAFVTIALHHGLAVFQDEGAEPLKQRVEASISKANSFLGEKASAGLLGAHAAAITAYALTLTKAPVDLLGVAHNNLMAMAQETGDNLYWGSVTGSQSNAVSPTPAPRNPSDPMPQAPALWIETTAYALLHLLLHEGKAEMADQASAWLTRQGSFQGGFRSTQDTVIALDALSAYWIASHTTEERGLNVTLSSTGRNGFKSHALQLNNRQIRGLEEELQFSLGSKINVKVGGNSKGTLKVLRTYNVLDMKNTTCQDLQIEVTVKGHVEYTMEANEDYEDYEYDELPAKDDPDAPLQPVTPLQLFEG

T2: human C4b (human) (UniProt P0C0L5)
T2 sequence: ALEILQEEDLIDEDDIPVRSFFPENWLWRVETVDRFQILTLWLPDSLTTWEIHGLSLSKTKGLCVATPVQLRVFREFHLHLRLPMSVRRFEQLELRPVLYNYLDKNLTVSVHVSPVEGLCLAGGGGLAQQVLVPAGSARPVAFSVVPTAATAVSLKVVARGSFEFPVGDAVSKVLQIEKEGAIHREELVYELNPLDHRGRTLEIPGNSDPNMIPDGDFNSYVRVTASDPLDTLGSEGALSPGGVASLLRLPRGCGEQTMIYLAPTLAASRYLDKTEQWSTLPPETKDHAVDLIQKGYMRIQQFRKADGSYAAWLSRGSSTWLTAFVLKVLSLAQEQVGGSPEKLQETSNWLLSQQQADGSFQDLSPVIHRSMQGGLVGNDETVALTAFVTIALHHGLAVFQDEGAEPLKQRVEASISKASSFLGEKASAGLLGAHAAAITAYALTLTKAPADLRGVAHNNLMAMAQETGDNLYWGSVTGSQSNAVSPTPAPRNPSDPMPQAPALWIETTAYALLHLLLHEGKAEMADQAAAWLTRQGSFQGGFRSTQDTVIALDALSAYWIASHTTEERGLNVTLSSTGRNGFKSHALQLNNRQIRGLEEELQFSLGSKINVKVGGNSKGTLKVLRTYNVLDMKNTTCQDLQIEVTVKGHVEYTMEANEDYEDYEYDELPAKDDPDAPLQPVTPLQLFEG


Columns and labels:
[1] = target: T1, human C4b (human)
[2] = target: soluble human C3b (human) (UniProt P01024)
[3] = target: T1, human C4b (human); remark: listed apart in the source
[4] = target: soluble human C3b (human) (UniProt P01024); remark: listed apart in the source
[5] = target: T2, human C4b (human)

Chain of CFI-HSA wild type (enzyme) (chain): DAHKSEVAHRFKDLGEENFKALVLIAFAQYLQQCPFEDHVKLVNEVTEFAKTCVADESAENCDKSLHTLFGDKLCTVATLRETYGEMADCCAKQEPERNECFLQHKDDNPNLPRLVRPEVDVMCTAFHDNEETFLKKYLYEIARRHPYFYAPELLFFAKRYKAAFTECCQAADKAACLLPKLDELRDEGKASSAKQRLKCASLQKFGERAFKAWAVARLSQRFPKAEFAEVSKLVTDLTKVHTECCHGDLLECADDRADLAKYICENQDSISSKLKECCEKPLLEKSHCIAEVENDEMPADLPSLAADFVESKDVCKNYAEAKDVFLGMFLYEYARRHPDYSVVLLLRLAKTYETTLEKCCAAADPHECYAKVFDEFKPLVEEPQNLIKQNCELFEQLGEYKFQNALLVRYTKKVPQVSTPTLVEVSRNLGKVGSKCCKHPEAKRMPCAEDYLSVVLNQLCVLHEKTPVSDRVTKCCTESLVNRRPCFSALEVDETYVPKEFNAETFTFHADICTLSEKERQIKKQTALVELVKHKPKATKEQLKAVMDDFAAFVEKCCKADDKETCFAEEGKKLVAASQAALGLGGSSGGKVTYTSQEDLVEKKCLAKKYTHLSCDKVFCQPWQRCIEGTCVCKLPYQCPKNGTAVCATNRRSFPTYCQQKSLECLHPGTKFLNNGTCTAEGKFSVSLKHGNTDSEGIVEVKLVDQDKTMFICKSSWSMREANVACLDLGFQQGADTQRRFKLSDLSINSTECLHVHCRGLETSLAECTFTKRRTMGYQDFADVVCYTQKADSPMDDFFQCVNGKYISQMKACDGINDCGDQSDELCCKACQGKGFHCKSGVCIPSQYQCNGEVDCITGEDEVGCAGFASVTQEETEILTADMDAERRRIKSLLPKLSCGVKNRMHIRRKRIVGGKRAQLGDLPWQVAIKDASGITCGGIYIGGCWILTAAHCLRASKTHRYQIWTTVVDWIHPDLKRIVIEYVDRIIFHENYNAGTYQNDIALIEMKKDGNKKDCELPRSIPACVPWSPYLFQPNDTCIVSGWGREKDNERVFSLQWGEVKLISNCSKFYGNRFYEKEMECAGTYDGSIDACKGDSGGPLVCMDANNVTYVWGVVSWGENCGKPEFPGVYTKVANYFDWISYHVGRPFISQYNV

C4b Screen Ref Fold (fold of reference) [1]	iC3b Screen Ref Fold (fold of reference) [2]	C4c EC50 (nM) [3] [nM]	iC3b EC50 [4] [nM]	C4b Screen Ref Fold (fold of CFI-HSA wild type) [1]	iC3b Screen Ref Fold (fold of CFI-HSA wild type) [2]	C4c EC50 [3] [nM]	C4b Screen Ref Fold (fold vs CFI-HSA wild type) [5]	iC3b Screen Ref Fold (fold vs CFI-HSA wild type) [2]	C4b Screen Ref Fold (fold of CFI-HSA wild type) [5]	Molecule
0.12	0.03	> 1000	90.6							CFI-HSA variant E457Y (enzyme)
		23.3	3.4	4.08	2.12					CFI-HSA variant T377G; E457G; E461Q; F464Y; N531G (enzyme)
0.1	0.73	> 1000	43.5							CFI-HSA variant K504T (enzyme)
1.6	1.05	482	25.4							CFI-HSA variant E457M (enzyme)
2.86	0.18	196	51.6							CFI-HSA variant K504Y (enzyme)
		20.4	5.1	4.41	2.21					CFI-HSA variant Y408F; E457G; E461Q; R462K; E530Y; N531G; P558S (enzyme)
0.15	-0.02		78.2			> 1000				CFI-HSA variant G406D; Y408L (enzyme)
		7.1	5	3.97	1.87					CFI-HSA variant P558G; E457G; E461Q; N531G (enzyme)
		> 1000	> 500				0.09	0		CFI-HSA variant D506G (enzyme)
		256	20.5				1.75	0.99		CFI-HSA variant E457I (enzyme)
		266	99.9				3.09	0.28		CFI-HSA variant R557K (enzyme)
		472	12.4				0.89	0.99		CFI-HSA variant P558L (enzyme)
		347	55.4				0.55	0.27		CFI-HSA variant F464Y (enzyme)
		399	27.1				0.48	0.59		CFI-HSA variant Q467R (enzyme)
			20.8		1.21	> 1000			0.41	CFI-HSA variant Y408L; E416A (enzyme)
		26.1	4.9				4.93	1.4		CFI-HSA variant D425R; Y408L; N531G; E457G; E461Q; R462K; F464Y (enzyme)
			4.4		0.99	12.7			5.43	CFI-HSA variant E457G; N531G; D425K (enzyme)
		> 1000	51.9				0.23	0.41		CFI-HSA variant K504A (enzyme)

C4b Screen Ref Fold (fold of reference) [1]	iC3b Screen Ref Fold (fold of reference) [2]	C4c EC50 (nM) [3] [nM]	iC3b EC50 [4] [nM]	C4b Screen Ref Fold (fold of CFI-HSA wild type) [1]	iC3b Screen Ref Fold (fold of CFI-HSA wild type) [2]	C4c EC50 [3] [nM]	C4b Screen Ref Fold (fold vs CFI-HSA wild type) [5]	iC3b Screen Ref Fold (fold vs CFI-HSA wild type) [2]	C4b Screen Ref Fold (fold of CFI-HSA wild type) [5]	Molecule
			76		0.15	> 1000			1.06	CFI-HSA variant G556A (enzyme)
		162	12.3				4.7	1.21		CFI-HSA variant E457D (enzyme)
		53.1	5.5				5.84	1.44		CFI-HSA variant E457G; E461Q (enzyme)
		299	28.4				1	1		CFI-HSA wild type (enzyme)
			6.7		0.92	17.5			5.87	CFI-HSA variant E457G; N531G; P558S (enzyme)
			19.4		0.53	865			0.1	CFI-HSA variant P535G; D425K (enzyme)
		70.5	10.6				5.29	1.09		CFI-HSA variant Y408L-N531G (enzyme)
		615	12.7				0.85	1.31		CFI-HSA variant Q467K; F537K (enzyme)
			19.7		0.56	> 1000			0	CFI-HSA variant Y408L; P535G; D425K (enzyme)
			4.7		1.46	7			4.37	CFI-HSA variant E457G; N531G; N422K (enzyme)
			5.2		2.43	42.6			4.68	CFI-HSA variant N531G; N422K (enzyme)
		645	29.1				0.16	1.08		CFI-HSA variant F537R (enzyme)
			11.7		0.6	205			1.21	CFI-HSA variant Y408L; E457G; P535G (enzyme)
		> 1000	21.8				0.08	0.98		CFI-HSA variant E530F (enzyme)
		59.3	3.1		2.48				4.35	CFI-HSA variant E457G; D425R; E416A (enzyme)
		> 1000	31.3				0.04	0.54		CFI-HSA variant E530G; N531G (enzyme)
		> 1000	96.8				0.01	0.05		CFI-HSA variant E457F (enzyme)
		54	> 500				6.24	0.04		WT mouse CFI (enzyme) RSPSASDLPQEELVDQKCLLQKYTHRSCNKVFCQPWQRCIEGTCICKLPYQCPRAGTPVCAMNGRSYPTYCHQKSFECLHPEIKFSHNGTCAAEGKFNVSLIYGRTKTEGLVQVKLVDQDERMFICKNSWSMAEANVACVDLGFPLGVRDIQGSFNISGNLHINDTECLHVHCRGVETSLAECAFTKRRTELSNGLAGVVCYKQDADFPTSLSFQCVNGKHIPQEKACNGVNDCGDQSDELCCKGCRGNASLCKSGVCIPDQYKCNGEVDCITGEDESRCEEDRQQNIPKGLARSAQGEAEIETEETEMLTPGMDNERKRIKSLLPKLSCGVKRNTHTRRKRVIGGKPANVGDYPWQVAIKDGQRITCGGIYIGGCWILTAAHCVRPSRAHSYQVWTALLDWLKPNSQLGIQTVKRVIVHEKYNGATFQNDIALIEMKMHTGKKECELPNSVPACVPWSPYLFQPNDRCIISGWGRGKDNQKVYSLRWGEVDLIGNCSQFYPDRYYEKEMQCAGTRDGSIDACKGDSGGPLVCEDINNVTYVWGIVSWGENCGKPEFPGVYTRVANYFDWISYHVGRSLVSQHNV
